Results on 63 sequences are retold here after the supplement of paper PMC7877785.

This data set can be described thus: self-splicing fitness, log relative to wild type (ln ratio); higher = more splicing; Tetrahymena group I intron in knt gene, E. coli kanamycin selection, DiMSum; sequences stand for … in CUCUCU…GGAGGGAAAAGUUAUCAGGCAUGCACCUGGUAGCUAGUCUUUAAACCAAUAGAUUGCAUCGGUUUAAAAGGCAAGACCGUCAAAUUGCGGGAAAGGGGUCAACAGCCGUUCAGUACCAAGUCUCAGGGGAAACUUUGAGAUGGCCUUGCAAAGGGUAUGGUAAUAAGCUGACGGACAUGGUCCUAACCACGCAGCCAAGUCCUAAGUCAACAGAUCUUCUGUUGAUAUGGAUGCAGUUCACAGACUAAAUGUCGGUCGGGGAAGAUGUAUUCUUCUCAUAAGAUAUAGUCGGACCUCUCCUUAAUGGGAGCUAGCGGAUGAAGUGAUGCAACACUGGAGCCGCUGGGAACUAAUUUGUAUGCGAAAGUAUAUUGAUUAGUUUUGGAGUACUCGUGGUCG
An outline of the steps:
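DiMSum derived fitness as the error-weighted combination of fold changes across replicates, kanamycin versus no kanamycin, normalised to wild type. E. coli BL21(DE3) held the library, which randomised all eight P1ex-region intron nucleotides within the knt kanamycin-resistance gene on pET-22b(+). Six replicate transformations grew overnight at 37°C or 30°C on LB agar with or without 25 μg/mL kanamycin, also containing 100 μg/mL carbenicillin, 50 μM IPTG and 0.2% rhamnose, and pooled colonies were amplicon-sequenced on an Illumina HiSeq 2500.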

± gives the uncertainty stated by the source.

CGGGAGCAAUAUUACGCAAG: the “self-splicing fitness (ln)” value runs as follows: (30 °C) -3.14 ± 0.23; (37 °C) -2.13 ± 0.29. For the sequence CGGGAGCAAUAUUACGCAGU, the “self-splicing fitness (ln)” value (37 °C) was -1.82 ± 0.29. On to CGGGAGCAAUAUUACGCAUA, for which the “self-splicing fitness (ln)” value is -2.61 ± 0.37 (30 °C) and -1.96 ± 0.35 (37 °C). Turning to CGGGAGCAAUAUUACGCGCG, the “self-splicing fitness (ln)” value (37 °C) is -0.901 ± 0.27. In the case of CGGGAGCAAUAUUACGCGUU, where the note is “30 °C”, the “self-splicing fitness (ln)” value was -1.22 ± 0.23. As to CGGGAGCAAUAUUACGCUGG, the “self-splicing fitness (ln)” value by setting is: (30 °C) -4.21 ± 0.42; (37 °C) -2 ± 0.3. Take CGGGAGCAAUAUUACGGCAG: the “self-splicing fitness (ln)” value reads like this: (30 °C) -2.71 ± 0.21; (37 °C) -1.12 ± 0.26. The like results for CGGGAGCAAUAUUACGGGCU were, in that order, -3.85 ± 0.34 and -2.5 ± 0.41.

As for CGGGAGCAAUAUUACGUACG, the “self-splicing fitness (ln)” value reads like this: (30 °C) -2.98 ± 0.11; (37 °C) -1.53 ± 0.097.

With CGGGAGCAAUAUUACGUAGA, the “self-splicing fitness (ln)” value (30 °C) was -3.97 ± 0.47 and the “self-splicing fitness (ln)” value (37 °C) is -1.96 ± 0.26. Turning to CGGGAGCAAUAUUACGUAGU, the “self-splicing fitness (ln)” value (37 °C) was -1.78 ± 0.29. Consider CGGGAGCAAUAUUACGUUGG, for which the “self-splicing fitness (ln)” value (30 °C) was -3.83 ± 0.22 and the “self-splicing fitness (ln)” value (37 °C) was -2.52 ± 0.2. For CGGUAGCAAUAUUACGACCA, the “self-splicing fitness (ln)” value is -0.494 ± 0.17 (30 °C) and -0.426 ± 0.14 (37 °C). On to CGGUAGCAAUAUUACGACUA, for which the “self-splicing fitness (ln)” value is -0.298 ± 0.14 (30 °C) and 0.0316 ± 0.16 (37 °C). CGGUAGCAAUAUUACGAGCG: the “self-splicing fitness (ln)” value by setting is: (30 °C) -0.978 ± 0.19; (37 °C) -0.291 ± 0.14.

On to CGGUAGCAAUAUUACGAUAG, for which the “self-splicing fitness (ln)” value is -0.323 ± 0.11 (30 °C) and 0.279 ± 0.14 (37 °C). Taken in the same sequence, the figures for CGGUAGCAAUAUUACGAUUA were -2.71 ± 0.31 and 0.554 ± 0.2.

Regarding CGGUAGCAAUAUUACGCCAA, the “self-splicing fitness (ln)” value by setting is: (30 °C) -2.52 ± 0.21; (37 °C) -2.6 ± 0.3. Turning to CGGUAGCAAUAUUACGCGAG, the “self-splicing fitness (ln)” value is -3.58 ± 0.31 (30 °C) and -2.36 ± 0.4 (37 °C). On to CGGUAGCAAUAUUACGCGGA, for which the “self-splicing fitness (ln)” value is, setting by setting: (30 °C) -2.54 ± 0.12; (37 °C) -1.26 ± 0.097.

Take CGGUAGCAAUAUUACGCGGC: the “self-splicing fitness (ln)” value reads like this: (30 °C) -3.99 ± 0.24; (37 °C) -2.79 ± 0.25. As to CGGUAGCAAUAUUACGCGGG, the “self-splicing fitness (ln)” value (30 °C) was -2.49 ± 0.18 and the “self-splicing fitness (ln)” value (37 °C) is -1.88 ± 0.24.

As for CGGUAGCAAUAUUACGCGUG, the “self-splicing fitness (ln)” value was -2.11 ± 0.15 (30 °C) and -1.82 ± 0.14 (37 °C). On to CGGUAGCAAUAUUACGCUCC, for which the “self-splicing fitness (ln)” value (30 °C) was -2.2 ± 0.38. As for CGGUAGCAAUAUUACGCUUC, the “self-splicing fitness (ln)” value (37 °C) was -0.894 ± 0.24. In the case of CGGUAGCAAUAUUACGGAAC, for the setting “37 °C”, the “self-splicing fitness (ln)” value is -2.37 ± 0.36.

For the sequence CGGUAGCAAUAUUACGGCCC, the “self-splicing fitness (ln)” value runs as follows: (30 °C) -0.507 ± 0.2; (37 °C) 0.668 ± 0.37. The like results for CGGUAGCAAUAUUACGGCGC were, in that order, -2.04 ± 0.23 and -1.95 ± 0.24. In the case of CGGUAGCAAUAUUACGGCGG, the “self-splicing fitness (ln)” value reads like this: (30 °C) 0.494 ± 0.093; (37 °C) 0.0118 ± 0.096. For the sequence CGGUAGCAAUAUUACGGGAC, the “self-splicing fitness (ln)” value is -3.63 ± 0.47 (30 °C) and -4.61 ± 0.46 (37 °C). On to CGGUAGCAAUAUUACGGGGA, for which the “self-splicing fitness (ln)” value (30 °C) is -2.53 ± 0.24 and the “self-splicing fitness (ln)” value (37 °C) is -3.03 ± 0.47.

As for CGGUAGCAAUAUUACGGGUC, the “self-splicing fitness (ln)” value reads like this: (30 °C) -4.51 ± 0.46; (37 °C) -4.33 ± 0.39. Take CGGUAGCAAUAUUACGGUCA: the “self-splicing fitness (ln)” value was -0.916 ± 0.092 (30 °C) and -0.275 ± 0.084 (37 °C). The like results for CGGUAGCAAUAUUACGGUGA were, in that order, -3.76 ± 0.41 and -0.848 ± 0.17.

Turning to CGGUAGCAAUAUUACGGUUA, the “self-splicing fitness (ln)” value reads like this: (30 °C) -2.23 ± 0.13; (37 °C) -1.3 ± 0.11.

Regarding CGGUAGCAAUAUUACGUCUC, the “self-splicing fitness (ln)” value was -2.46 ± 0.12 (30 °C) and -1.86 ± 0.13 (37 °C). With CGGUAGCAAUAUUACGUGUU, the “self-splicing fitness (ln)” value (30 °C) was -4.12 ± 0.28 and the “self-splicing fitness (ln)” value (37 °C) is -3.09 ± 0.27. For the sequence CGUAAGCAAUAUUACGAAAG, the “self-splicing fitness (ln)” value (30 °C) was -1.98 ± 0.13 and the “self-splicing fitness (ln)” value (37 °C) was -0.821 ± 0.12. The like results for CGUAAGCAAUAUUACGAACG were, in that order, -3.04 ± 0.18 and -1.76 ± 0.22. As to CGUAAGCAAUAUUACGACAG, the “self-splicing fitness (ln)” value (30 °C) was -0.247 ± 0.11 and the “self-splicing fitness (ln)” value (37 °C) was -0.867 ± 0.14. Taken in the same sequence, the figures for CGUAAGCAAUAUUACGACGG were 0.0203 ± 0.061 and -0.0967 ± 0.082.

Regarding CGUAAGCAAUAUUACGACUG, the “self-splicing fitness (ln)” value runs as follows: (30 °C) -0.564 ± 0.081; (37 °C) 0.421 ± 0.13. Regarding CGUAAGCAAUAUUACGAGGG, the “self-splicing fitness (ln)” value was -2.74 ± 0.19 (30 °C) and -1.86 ± 0.24 (37 °C). CGUAAGCAAUAUUACGAUCG: the “self-splicing fitness (ln)” value is -1.03 ± 0.11 (30 °C) and -0.0852 ± 0.13 (37 °C). As to CGUAAGCAAUAUUACGCACC, the “self-splicing fitness (ln)” value (37 °C) was -0.957 ± 0.39. With CGUAAGCAAUAUUACGCAUG, the “self-splicing fitness (ln)” value was -1.88 ± 0.13 (30 °C) and -0.863 ± 0.13 (37 °C). With CGUAAGCAAUAUUACGCCGU, the “self-splicing fitness (ln)” value reads like this: (30 °C) -3.89 ± 0.26; (37 °C) -2.65 ± 0.21. CGUAAGCAAUAUUACGCUCG: the “self-splicing fitness (ln)” value (30 °C) was -1.8 ± 0.17 and the “self-splicing fitness (ln)” value (37 °C) was -0.572 ± 0.23. Consider CGUAAGCAAUAUUACGGAAC, for which the “self-splicing fitness (ln)” value (37 °C) was -1.39 ± 0.39. Regarding CGUAAGCAAUAUUACGGCGG, the “self-splicing fitness (ln)” value reads like this: (30 °C) -0.217 ± 0.072; (37 °C) -0.126 ± 0.096. Consider CGUAAGCAAUAUUACGGCUG, for which the “self-splicing fitness (ln)” value by setting is: (30 °C) -0.231 ± 0.062; (37 °C) -0.177 ± 0.095. The like results for CGUAAGCAAUAUUACGGCUU were, in that order, -3.69 ± 0.21 and -2.02 ± 0.25.

Turning to CGUAAGCAAUAUUACGUACU, the “self-splicing fitness (ln)” value is -0.922 ± 0.098 (30 °C) and -0.936 ± 0.11 (37 °C). CGUAAGCAAUAUUACGUCCC: the “self-splicing fitness (ln)” value was -3.09 ± 0.38 (30 °C) and -1.21 ± 0.29 (37 °C).

With CGUAAGCAAUAUUACGUGAA, the “self-splicing fitness (ln)” value by setting is: (30 °C) -3.19 ± 0.14; (37 °C) -1.61 ± 0.15. In the case of CGUAAGCAAUAUUACGUGGA, the “self-splicing fitness (ln)” value (30 °C) is -2.93 ± 0.2 and the “self-splicing fitness (ln)” value (37 °C) is -2.44 ± 0.24. With CGUAAGCAAUAUUACGUGUA, the “self-splicing fitness (ln)” value runs as follows: (30 °C) -3.25 ± 0.22; (37 °C) -0.592 ± 0.13. With CGUAAGCAAUAUUACGUUGU, the “self-splicing fitness (ln)” value is, setting by setting: (30 °C) -3.29 ± 0.18; (37 °C) -2.53 ± 0.22. As to CGUCAGCAAUAUUACGAAGG, the “self-splicing fitness (ln)” value is, setting by setting: (30 °C) -0.693 ± 0.074; (37 °C) -0.652 ± 0.11. Taken in the same sequence, the figures for CGUCAGCAAUAUUACGACAG were -0.576 ± 0.097 and 0.297 ± 0.13. Consider CGUCAGCAAUAUUACGAGGC, for which the “self-splicing fitness (ln)” value (30 °C) was -4.66 ± 0.36 and the “self-splicing fitness (ln)” value (37 °C) is -3.2 ± 0.47.

As to CGUCAGCAAUAUUACGAUAU, the “self-splicing fitness (ln)” value was -2.13 ± 0.13 (30 °C) and -0.978 ± 0.13 (37 °C). Taken in the same sequence, the figures for CGUCAGCAAUAUUACGCAAC were -3.74 ± 0.3 and -2.47 ± 0.23.
